B1: GpH7-A5/GpH7-B3 variant K334_01G/GpL16-k0 (antibody, human IgG1, kappa)
heavy 1: not shown
heavy 2: not shown
light: DIVMTQSPLSLPVTPGEPASISCQASESLVHSNRNTYLHWYLQKPGQSPQLLIYKVSNRFSGVPDRFSGSGSGTDFTLKISRVEAEDVGVYYCSQNTHVPPTFGQGTKVEIERTVAAPSVFIFPPSDEQLKSGTASVVCLLNNFYPREAKVQWKVDNALQSGNSQESVTEQDSKDSTYSLSSTLTLSKADYEKHKVYACEVTHQGLSSPVTKSFNRGEC
notes: Alteration in one H chain only; also called He Ab K334_01G
B2: GpH7-A5/GpH7-B3 variant Q295_10E/GpL16-k0 (antibody, human IgG1, kappa)
heavy 1: not shown
heavy 2: not shown
light: B1 light
notes: Alteration in one H chain only; also called He Ab Q295_10E
B3: GpH7-A5/GpH7-B3 variant K334_16H/GpL16-k0 (antibody, human IgG1, kappa)
heavy 1: not shown
heavy 2: not shown
light: B1 light
notes: Alteration in one H chain only; also called He Ab K334_16H
B4: GpH7-A5/GpH7-B3 variant P271_10E/GpL16-k0 (antibody, human IgG1, kappa)
heavy 1: not shown
heavy 2: not shown
light: B1 light
notes: Alteration in one H chain only; also called He Ab P271_10E
B5: GpH7-A5/GpH7-B3 variant S324_10E/GpL16-k0 (antibody, human IgG1, kappa)
heavy 1: not shown
heavy 2: not shown
light: B1 light
notes: Alteration in one H chain only; also called He Ab S324_10E
B6: GpH7-A5/GpH7-B3 variant K334_15Y/GpL16-k0 (antibody, human IgG1, kappa)
heavy 1: not shown
heavy 2: not shown
light: B1 light
notes: Alteration in one H chain only; also called He Ab K334_15Y
B7: GpH7-A5/GpH7-B3 variant S267_18N/GpL16-k0 (antibody, human IgG1, kappa)
heavy 1: not shown
heavy 2: not shown
light: B1 light
notes: Alteration in one H chain only; also called He Ab S267_18N
B8: GpH7-A5/GpH7-B3 variant K334_02A/GpL16-k0 (antibody, human IgG1, kappa)
heavy 1: not shown
heavy 2: not shown
light: B1 light
notes: Alteration in one H chain only; also called He Ab K334_02A
B9: GpH7-A5/GpH7-B3 variant L328_15Y/GpL16-k0 (antibody, human IgG1, kappa)
heavy 1: not shown
heavy 2: not shown
light: B1 light
notes: Alteration in one H chain only; also called He Ab L328_15Y
B10: GpH7-A5/GpH7-B3 variant S267_19Q/GpL16-k0 (antibody, human IgG1, kappa)
heavy 1: not shown
heavy 2: not shown
light: B1 light
notes: Alteration in one H chain only; also called He Ab S267_19Q
B11: GpH7-A5/GpH7-B3 variant K326_20W/GpL16-k0 (antibody, human IgG1, kappa)
heavy 1: not shown
heavy 2: not shown
light: B1 light
notes: Alteration in one H chain only; also called He Ab K326_20W
B12: GpH7-A5/GpH7-B3 variant S239_10E/GpL16-k0 (antibody, human IgG1, kappa)
heavy 1: not shown
heavy 2: not shown
light: B1 light
notes: Alteration in one H chain only; also called He Ab S239_10E
B13: GpH7-A5/GpH7-B3 variant S337_18N/GpL16-k0 (antibody, human IgG1, kappa)
heavy 1: not shown
heavy 2: not shown
light: B1 light
notes: Alteration in one H chain only; also called He Ab S337_18N
B14: GpH7-A5/GpH7-B3 variant S324_09D/GpL16-k0 (antibody, human IgG1, kappa)
heavy 1: not shown
heavy 2: not shown
light: B1 light
notes: Alteration in one H chain only; also called He Ab S324_09D
B15: GpH7-A5/GpH7-B3 variant S267_14T/GpL16-k0 (antibody, human IgG1, kappa)
heavy 1: not shown
heavy 2: not shown
light: B1 light
notes: Alteration in one H chain only; also called He Ab S267_14T
B16: GpH7-A5/GpH7-B3 variant K326_19Q/GpL16-k0 (antibody, human IgG1, kappa)
heavy 1: not shown
heavy 2: not shown
light: B1 light
notes: Alteration in one H chain only; also called He Ab K326_19Q
B17: GpH7-A5/GpH7-B3 variant S337_16H/GpL16-k0 (antibody, human IgG1, kappa)
heavy 1: not shown
heavy 2: not shown
light: B1 light
notes: Alteration in one H chain only; also called He Ab S337_16H
B18: GpH7-A5/GpH7-B3 variant P271_08L/GpL16-k0 (antibody, human IgG1, kappa)
heavy 1: not shown
heavy 2: not shown
light: B1 light
notes: Alteration in one H chain only; also called He Ab P271_08L
B19: GpH7-A5/GpH7-B3 variant K334_07I/GpL16-k0 (antibody, human IgG1, kappa)
heavy 1: not shown
heavy 2: not shown
light: B1 light
notes: Alteration in one H chain only; also called He Ab K334_07I
B20: GpH7-A5/GpH7-B3 variant K334_13S/GpL16-k0 (antibody, human IgG1, kappa)
heavy 1: not shown
heavy 2: not shown
light: B1 light
notes: Alteration in one H chain only; also called He Ab K334_13S
B21: GpH7-A5/GpH7-B3 variant S267_10E/GpL16-k0 (antibody, human IgG1, kappa)
heavy 1: not shown
heavy 2: not shown
light: B1 light
notes: Alteration in one H chain only; also called He Ab S267_10E
B22: GpH7-A5/GpH7-B3 variant K334_09D/GpL16-k0 (antibody, human IgG1, kappa)
heavy 1: not shown
heavy 2: not shown
light: B1 light
notes: Alteration in one H chain only; also called He Ab K334_09D
B23: GpH7-A5/GpH7-B3 variant P271_18N/GpL16-k0 (antibody, human IgG1, kappa)
heavy 1: not shown
heavy 2: not shown
light: B1 light
notes: Alteration in one H chain only; also called He Ab P271_18N
B24: GpH7-A5/GpH7-B3 variant I336_15Y/GpL16-k0 (antibody, human IgG1, kappa)
heavy 1: not shown
heavy 2: not shown
light: B1 light
notes: Alteration in one H chain only; also called He Ab I336_15Y
B25: GpH7-A5/GpH7-B3 variant K326_08L/GpL16-k0 (antibody, human IgG1, kappa)
heavy 1: not shown
heavy 2: not shown
light: B1 light
notes: Alteration in one H chain only; also called He Ab K326_08L
B26: GpH7-A5/GpH7-B3 variant S267_06M/GpL16-k0 (antibody, human IgG1, kappa)
heavy 1: not shown
heavy 2: not shown
light: B1 light
notes: Alteration in one H chain only; also called He Ab S267_06M
B27: GpH7-A5/GpH7-B3 variant K326_03V/GpL16-k0 (antibody, human IgG1, kappa)
heavy 1: not shown
heavy 2: not shown
light: B1 light
notes: Alteration in one H chain only; also called He Ab K326_03V

T1 sequence (P12314 16-292): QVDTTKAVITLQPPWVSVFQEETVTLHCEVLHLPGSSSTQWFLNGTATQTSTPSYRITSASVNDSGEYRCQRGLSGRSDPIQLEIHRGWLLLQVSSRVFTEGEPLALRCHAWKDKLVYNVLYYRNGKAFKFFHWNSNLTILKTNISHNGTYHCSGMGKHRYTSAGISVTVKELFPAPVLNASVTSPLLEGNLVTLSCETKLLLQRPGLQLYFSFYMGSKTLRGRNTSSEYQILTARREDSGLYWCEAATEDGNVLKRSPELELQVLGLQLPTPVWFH

This experiment has as its target T1, FcγRIa (human, UniProt P12314 16-292).
T1 construct: extracellular domain; also called FcgRI; FcgRIa; not shown: His tag attached to the C terminus
Description: SPR (Biacore), relative binding; control HeCon Ab GpH7-A5/GpH7-B3/GpL16-k0. In general terms: SPR reads the build-up and loss of mass on a sensor chip optically.
In the case of B1, the He/Con_1a was 104 % of control (=100).

For the molecule B2, the He/Con_1a was 103 % of control (=100).

As for B3, the He/Con_1a is 105 % of control (=100).

In the case of B4, the He/Con_1a was 103 % of control (=100).

On to B5, for which the He/Con_1a is 105 % of control (=100).

For B6, the He/Con_1a is 105 % of control (=100).

For the molecule B7, the He/Con_1a is 102 % of control (=100).

Regarding B8, the He/Con_1a is 106 % of control (=100).

As for B9, the He/Con_1a is 102 % of control (=100).

On to B10, for which the He/Con_1a was 102 % of control (=100).

Consider B11, for which the He/Con_1a is 103 % of control (=100).

For B12, the He/Con_1a is 105 % of control (=100).

In the case of B13, the He/Con_1a is 105 % of control (=100).

For the molecule B14, the He/Con_1a is 104 % of control (=100).

B15: the He/Con_1a is 102 % of control (=100).

Turning to B16, the He/Con_1a is 102 % of control (=100).

Consider B17, for which the He/Con_1a was 105 % of control (=100).

Regarding B18, the He/Con_1a was 102 % of control (=100).

Consider B19, for which the He/Con_1a is 104 % of control (=100).

Consider B20, for which the He/Con_1a is 105 % of control (=100).

Regarding B21, the He/Con_1a was 106 % of control (=100).

B22: the He/Con_1a is 106 % of control (=100).

Take B23: the He/Con_1a is 103 % of control (=100).

As to B24, the He/Con_1a was 103 % of control (=100).

Regarding B25, the He/Con_1a is 100 % of control (=100).

As for B26, the He/Con_1a was 106 % of control (=100).

On to B27, for which the He/Con_1a is 102 % of control (=100).

The values are drawn from US20150344570A1 (published 2015).
